From paper PMC1802081

How the values were obtained:
Experiment in all cases: SPR; BIACORE 2000; biotinylated ligand on a streptavidin-modified CM5 chip (about 200 RU); receptor ectodomain as analyte at 1, 2, 3, 5, 10, 20 and 50 uM; HBS500 (10 mM HEPES pH 7.4, 500 mM NaCl, 3.4 mM EDTA, 0.005% P20); apparent KD from the dose dependence of equilibrium binding
BMP-2 L100K = target: BMP-2 L100K
BMP-2 S85R = target: BMP-2 S85R
BMP-2 A86P = target: BMP-2 A86P
[1] = target: BMP-2 variant L100K/N102D
BMP-2 S85R/A86P = target: BMP-2 S85R/A86P
BMP-2 N102D = target: BMP-2 N102D

ActR-II receptor ectodomain (from UniProt P27037 20-135)
rel. KD (against wildtype BMP-2 from E. coli with the same receptor) (BMP-2 L100K): 0.84 fold
rel. KD (against wildtype BMP-2 from E. coli with the same receptor) (BMP-2 S85R): 0.85 fold
rel. KD (against wildtype BMP-2 from E. coli with the same receptor) (BMP-2 A86P): 1.5 fold
rel. KD (against wildtype BMP-2 from E. coli with the same receptor) [1]: 0.29 fold
rel. KD (against wildtype BMP-2 from E. coli with the same receptor) (BMP-2 S85R/A86P): 1.3 fold
rel. KD (against wildtype BMP-2 from E. coli with the same receptor) (BMP-2 N102D): 3.6 fold
